Laboratory results reported in IntAct's records for PubMed 22232549.

B1: Extra-large guanine nucleotide-binding protein 2 (Arabidopsis thaliana (Mouse-ear cress)), C6KIE6 (parent)
chain: MAAVIRKLLPFPSPNPKRDNRESDDDDETSSGYRIEYSFASEYKGPLIANVPRALPVEVDQIPTALPVSFSSLRSGISYPVAPLVMTKDTKRPPDSGIEKKNGFVDSAAGSSVVLIGRDVVSGSSSSSSSKRLDVPEEVKSPADFRLSPSSPLSASAREEDHLDDDRVSDVGPRAVRFVEPFQSSECDESSYVSDGESIAATHRAERKGKRGSCYRCQLGNRFTEKEVCIVCDAKYCFNCVRRAMGAMPEGRKCQACIGYRIDESKRASLGKCSRMLKRHLTDSELRQVMNAEITCKANQLPSRLIIVNDKPLSEDELYTLQTCPNPPKKLKPGHYWYDKVAGYWGKIGEKPSQIISPNNSIGGYISEKVSNGDTEIYINGREITKPELTMLKWAGVQCEGKPHFWVDSDGSYREEGQKHPIGNIWSKKRAKIACAVFSLPVPPASSAVEPYDVPLYEQKMLNKLLLIGSEKGGATTIYKQARSLYNVSFSLEDRERIKFIIQTNLYTYLAMVLEAHERFEKEMSNDQSSGNVGDETSAKPGNSINPRLKHFSDWVLKEKEDGNLKIFPPSSRENAQTVADLWRVPAIQATYKRLRDTLPRNAVYFLERILEISRSEYDPSDMDILQAEGLSSMEGLSCVDFSFPSTSQEESLESDYQHDTDMKYQLIRLNPRSLGENWKLLEMFEDADLVIFCVSLTDYAENIEDGEGNIVNKMLATKQLFENMVTHPSLANKRFLLVLTKFDLLEEKIEEVPLRTCEWFEDFNPLISQNQTSRHNPPMAQRAFHYIGYKFKRLYDSILEPVNMRGRSFKPKLFVCQVSLESDTVDNALRYAREILKWHVEETSMFQEMSTTSIEASSSS
partner: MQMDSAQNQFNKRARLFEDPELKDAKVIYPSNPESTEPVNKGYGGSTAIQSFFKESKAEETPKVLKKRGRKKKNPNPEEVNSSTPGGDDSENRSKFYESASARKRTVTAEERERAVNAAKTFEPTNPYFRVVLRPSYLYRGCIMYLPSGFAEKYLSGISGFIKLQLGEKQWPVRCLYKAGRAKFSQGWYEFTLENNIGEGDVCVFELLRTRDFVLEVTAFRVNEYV

Variants of: B1
Conditions: with rem19_arath REM19, Q9XIB5

Variant | effect of a mutation on the interaction
T476N | disrupting interaction
